The source of these data is patent US20170129959A1 (OSE IMMUNOTHERAPEUTICS, published 2017).

Experiment [1] has as its target T1, Recombinant CD127 Fc Chimera (10975-H03H, Sino Biological) (human, UniProt P16871 21-239).
T1 construct: Bought protein; also called hCD127-Ig; human CD127Fc; not shown: constant fragment of an immunoglobulin
T1 chain: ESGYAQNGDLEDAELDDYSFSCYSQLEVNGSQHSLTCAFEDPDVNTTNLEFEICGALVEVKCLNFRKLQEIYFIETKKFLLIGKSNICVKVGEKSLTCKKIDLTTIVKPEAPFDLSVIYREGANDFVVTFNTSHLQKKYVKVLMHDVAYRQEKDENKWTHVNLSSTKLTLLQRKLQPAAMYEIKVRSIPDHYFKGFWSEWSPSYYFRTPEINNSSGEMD
Description: ELISA, human CD127Fc coated, revealed with anti-human kappa antibody; printed as ED 50. (In an ELISA, binding on a coated surface is turned into a signal by an enzyme label.)

Experiment [2] deals with T2, Recombinant hCD127 (Sino Biologicals, reference 10975-H08H) (human, UniProt P16871 21-239).
T2 construct: Bought protein; also called recombinant hCD127 antigen; rCD127
T2 chain: T1 chain
The experiment is described as follows: ELISA on coated recombinant hCD127, anti-human kappa detection; antibody stored 7 days at 37 °C; printed as ED 50. As for the experimental part: (§1) FIG. 15. Stability assay of humanized versus Rat anti-CD127 antibodies. Antibody concentrations was measured by ELISA after 7 days at 37° C. (Rat N13B2 wt (+) or humanized N13B2 h3 (square)) and at −80° C. (Rat N13B2 wt (X) or humanized N13B2 h3 (triangle)) and after four frost/defrost events (diamonds).
(§2) Humanized and chimeric purified N13B2-G1 were incubated at 37° C. or at −80° C. for 7 days. Two assays were used to measure stability of antibody: binding anti-CD127 by ELISA assay, and aggregate formation by gel filtration. For activity ELISA assay, recombinant hCD127 (Sino Biologicals, Beijing, China; reference 10975-H08H) was immobilized on plastic at lpg/ml and dilutions of supernatant were added to measure binding. […] For analysis of aggregate formation, sample was analysed on gel filtration chromatography column (Superdex 200, 10/300GL, GeHealthcare) to separate and evaluate aggregate and monomer from samples.

Experiment [3] deals with T2, Recombinant hCD127 (Sino Biologicals, …). Description: ELISA on immobilised recombinant hCD127; antibody stored 7 days at -80 °C. As for the experimental part: as §1, §2
Experiment [4] shares this target. The experiment is described as follows: ELISA on immobilised recombinant hCD127; antibody after four frost/defrost events.
Experiment [5] has as its target T3, Human CD127 (IL-7 receptor alpha chain) expressed on cells (human, UniProt P16871 21-459).
T3 chain: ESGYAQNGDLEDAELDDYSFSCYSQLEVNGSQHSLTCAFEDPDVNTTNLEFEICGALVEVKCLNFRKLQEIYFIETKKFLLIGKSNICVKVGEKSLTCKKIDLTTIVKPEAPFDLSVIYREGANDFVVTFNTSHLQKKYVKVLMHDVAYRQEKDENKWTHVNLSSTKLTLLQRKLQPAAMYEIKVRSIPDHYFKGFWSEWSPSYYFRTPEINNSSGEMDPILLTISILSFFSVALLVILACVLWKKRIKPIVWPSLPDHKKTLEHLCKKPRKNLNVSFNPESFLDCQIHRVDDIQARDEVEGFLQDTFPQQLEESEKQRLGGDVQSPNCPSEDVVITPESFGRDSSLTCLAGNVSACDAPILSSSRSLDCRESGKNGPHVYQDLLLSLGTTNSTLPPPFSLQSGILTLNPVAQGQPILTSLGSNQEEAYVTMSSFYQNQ
The experiment is described as follows: cell-based or functional assay.

Experiment [6] has as its target T2, Recombinant hCD127 (Sino Biologicals, …). Description: ELISA on coated recombinant hCD127, anti-human kappa detection; antibody after 4 frost/defrost events; printed as ED 50.
For experiment [7] the target is unchanged. The experiment is described as follows: ELISA on immobilised recombinant hCD127; antibody stored 7 days at 37 °C. As for the experimental part:
as §1, §2

Experiment [8] shares this target. Description: ELISA on coated recombinant hCD127, anti-human kappa detection; antibody stored 7 days at -80 °C; printed as ED 50. As for the experimental part:
as §1, §2

B1: N13B2-h3 (humanized N13B2) (antibody, IgG4, V domains shown)
VH: QVQLVESGGGLVKPGGSLRLSCAVSGFTLSDYYMAWIRQAPGKGLEWVSTISASGLRTYYPDSVKGRFTISRDNAKNSLYLQMNSLRAEDTAVYYCARPLSAHYGFNYFDYWGQGTLVTVSS
VL: EIVMTQSPATLSVSPGERATLSCRTSEDIYQGLAWYQQKPGQAPRLLIYSANTLHIGIPARFSGSGSGTEFTLTISSLQSEDFAVYYCQQYYDYPLAFGGGTKVEIK
notes: Variable regions only
For the molecule B1, the EC50 in experiment [1] is 0.6 ng/mL; in experiment [2], 1.1 ng/mL; in experiment [6], 1.7 ng/mL; in experiment [8], 1.3 ng/mL. Also, the concentration for a half-maximal effect (EC50 (read off the curve)) in experiment [3] was roughly 1 ng/mL; in experiment [4], roughly 2 ng/mL; in experiment [7], roughly 1 ng/mL. The “IC 50 of inhibition of IL7 induced P-STAT5 on T lymphocytes (0.1 ng/ml rhIL-7)” value in experiment [5] came to 21.2 ng/mL.

As a reminder, the EC50 is the midpoint of the concentration-response curve. What is called EC50 (read off the curve) is the concentration that produces a half-maximal response.
